# Source: patent US20190016800A1
# Molecular target: cynomolgus monkey LAG-3 protein (Cat#LA3-C52A0, Acrobiosystems) (cynomolgus monkey)
# Assay: BLI ForteBio Octet RED 96, biotin labeled antibody on streptavidin sensor, antigen 3.125-100 nM, 1:1 fit
substance,measurement,value
"LAG3.5 (BMS-986016, developed by Bristol-Myers Squibb) (antibody)",Kd,2.22 nM
